# Laboratory results taken from patent publication US20050002900A1, “Method of treating estrogen responsive breast cancer” (priority 2001, published 2005).
# Columns and labels:
# [1] = system: human adipocytes; assay: Estradiol production by cultured human adipocytes (Active Estradiol EIA kit); format: cell-based; conditions: for estradiol amount: cytokine alone at increasing concentrations
# Description: (§1) Human subcutaneous cultured adipocytes and preadipocytes, catalog nos. SP-1012, SP-1024, SP-1096, SP-75, or SP-25 were purchased from Zen-Bio, Inc. (Research Triangle Park, N.C.) and cultured according to the manufacturer's instructions.
# The culture medium of the preadipocytes was supplemented with 0.1 μg/ml IFN-γ and increasing concentrations of either TNF-α or TNF-β as shown in FIG. 1. Estradiol concentrations were measured using the Active™ Estradiol EIA kit according to the manufacturer's instructions (catalog no. DSL-10-4300, Diagnostic Systems Laboratories, Inc., Webster, Tex.).
# (§2) The isolated human adipocytes were also treated with different interferon family members: IFN-α, -β, and -γ.
# [2] = system: aromatase mRNA; assay: RT-PCR of aromatase mRNA in cultured adipocytes; format: cell-based, human; conditions: for transcription of aromatase mRNA: cytokine alone compared to untreated control; for expression of aromatase mRNA in human adipocytes: interferon alone, endogenous expression, FIG. 3
# Description: as §1
# Adipocyte cultures were treated with IL-1-β, IFN-γ, TNF-α, and combinations of IL-1-β and IFN-γ and TNF-α and IFN-γ. Consequently, total RNA from cultured adipocytes was isolated using conventional methods. The reverse transcriptase polymerase chain reaction (RT-PCR) was performed using aromatase specific primers. The amplified aromatase cDNA fragments produced by RT-PCR were separated on an agarose gel. […] The estradiol production by the cells is shown as pikograms/ml (pg/ml) below the photograph of the gel showing the aromatase mRNA levels.
# as §2
molecule,measurement,setting,value
TNF-α,estradiol amount,[1]; FIG. 1,significantly increased
same,transcription of aromatase mRNA,[2]; FIG. 2,induced
IL-1β: interleukin-1β,transcription of aromatase mRNA,[2]; FIG. 2,induced
IFN-α,estradiol production increase upon interferon induction,"[1]; interferon alone, FIG. 3",about 6 fold
same,expression of aromatase mRNA in human adipocytes,[2],significantly increased
"IFN-γ: interferon gamma, added at 0.1 μg/ml to adipocyte culture medium (protein, UniProt P01579 24-161, looked up) Interferon gamma: QDPYVKEAENLKKYFNAGHSDVADNGTLFLGILKNWKEESDRKIMQSQIVSFYFKLFKNFKDDQSIQKSVETIKEDMNVKFFNSNKKKRDDFEKLTNYSVTDLNVQRKAIHELIQVMAELSPAAKTGKRKRSQMLFRG",TNF-α induced estradiol production,"[1]; 0.1 μg/ml IFN-γ, increasing concentrations of TNF-α, FIG. 1",inhibits
same,TNF-β induced estradiol production,"[1]; 0.1 μg/ml IFN-γ, increasing concentrations of TNF-β, FIG. 1",inhibits
same,estradiol production,"[1]; IFN-γ alone, FIG. 3",blocked completely
same,transcription of aromatase mRNA induced by IL-1β,"[2]; given together with IL-1β, FIG. 2",inhibits
same,transcription of aromatase mRNA induced by TNFα,"[2]; given together with TNFα, FIG. 2",inhibits
same,expression of aromatase mRNA in human adipocytes,[2],inhibits
"TNF-β: tumor necrosis factor beta (protein, UniProt P01374 35-205, looked up) Lymphotoxin-alpha: LPGVGLTPSAAQTARQHPKMHLAHSTLKPAAHLIGDPSKQNSLLWRANTDRAFLQDGFSLSNNSLLVPTSGIYFVYSQVVFSGKAYSPKATSSPLYLAHEVQLFSSQYPFHVPLLSSQKMVYPGLQEPWLHSMYHGAAFQLTQGDQLSTHTDGIPHLVLSPSTVFFGAFAL",estradiol amount,[1]; FIG. 1,significantly increased
"TBP: soluble TNF binding protein, TNF-R1, as described in U.S. Pat. No. 6,225,300 (protein, UniProt P19438 30-211, looked up, extracellular domain) extracellular domain: LVPHLGDREKRDSVCPQGKYIHPQNNSICCTKCHKGTYLYNDCPGPGQDTDCRECESGSFTASENHLRHCLSCSKCRKEMGQVEISSCTVDRDTVCGCRKNQYRHYWSENLFQCFNCSLCLNGTVHLSCQEKQNTVCTCHAGFFLRENECVSCSNCKKSLECTKLCLPQIENVKGTEDSGTT",TNF-α induced estradiol production,"[1]; TNF-α at varying concentrations plus TBP, FIG. 4",completely blocked
same,TNF-β induced estradiol production,"[1]; TNF-β at varying concentrations plus TBP, FIG. 4",completely blocked
